Test results reported in the supplement of paper PMC12042874.
± gives the uncertainty stated by the source.

test: amyloid nucleation score (Sup35N fusion, yeast selection) (log enrichment); library NNK2; higher = more nucleation; inactive = no reads after selection
How it was run: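 DiMSum was used to calculate nucleation scores as log enrichment of output over input reads, centred on the mode score of non-aggregating sequences. Sequences with fewer than 100 input reads were not scored. Input and output came from Illumina sequencing of plasmid inserts in psi-negative yeast expressing peptides of 20 random codons fused to Sup35N, induced 24 hours with 100 μM copper sulfate and then grown 7 days at 30°C on medium lacking adenine and uracil.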

Row | Substance | amyloid nucleation score
1 | VRSVLVRKGTWARCTRMVAM | 1.05 ± 0.56
2 | VRSWTGPSEVQNCKSEFSGA | 0.731 ± 0.28
3 | VRTNDKYQEVFPSVYYNLGN | -0.944 ± 1.1
4 | VRTTYYNELETFLVLTPAMR | 1.36 ± 0.22
5 | VRVHCLHLVYYYSQCPRYNN | -0.277 ± 1.1
6 | VRYMLRTLEYMSRVGCSISH | 0.101 ± 0.76
7 | VSACSDLNGW | -0.233 ± 0.47
8 | VSARDHLGKRNRHWINC | -0.626 ± 0.55
9 | VSASFEFRFSSGKWACLWRG | 4.31 ± 0.057
10 | VSDLLPVSDGSFTNPIVMLV | 0.323 ± 0.26
11 | VSDNFTYVLVYESGTGFTVS | inactive
12 | VSENDGVRACCLS | 0.474 ± 0.44
13 | VSHFPGSPLTNKRSMLPAQM | 2.01 ± 0.14
14 | VSITHQLTYW | 1.33 ± 0.53
15 | VSMLISTTPAYIIRQFKGLW | 1.09 ± 0.68
16 | VSNGVVMDKCIRKICTVLTM | -0.667 ± 0.45
17 | VSNREMYVNR | 0.086 ± 0.74
18 | VSQARVLCFMNFGRFLTLNE | 5.51 ± 0.09
19 | VSRMLSVMSMTTRMFLPYTS | 0.152 ± 0.61
20 | VSRMYKHLSYMVLIYSPWRE | -0.315 ± 1
21 | VSRSVY | 0.166 ± 0.3
22 | VSRVEYCSGCMSANYLL | 7.7 ± 0.08
23 | VSSETSGFMIGYLYVDLNGV | -0.814 ± 0.4
24 | VSSMHFFWF | -0.378 ± 0.54
25 | VSTGAWCYGLWSVLQGWERG | 5.02 ± 0.082

Row | Substance | amyloid nucleation score
26 | VSTWTYSHRAPRG | 1.52 ± 0.26
27 | VSVIGKFSFHPKRMRG | -0.481 ± 0.39
28 | VSVRGTHVL | -0.28 ± 0.61
29 | VSWLDYHVSPSRCRGTLNPC | 0.463 ± 0.38
30 | VTAAVNCFVNKAQLCTCLFM | 9.097 ± 0.052
31 | VTEIFMLAL | -0.129 ± 1.1
32 | VTFSSIVTISLISYLQRFWR | 5.77 ± 0.04
33 | VTGNTSRLISRPGANPNCMG | -0.03 ± 0.56
34 | VTHNYKFIQLGSEK | 4.12 ± 0.074
35 | VTRFLISYTRIGRMYSVGFV | -0.523 ± 1
36 | VTRKTWFFVLCNQLFTLFAD | 6.975 ± 0.058
37 | VTSLDFKFNVGEY | 0.832 ± 0.67
38 | VTSLG | -0.249 ± 0.25
39 | VTWALCAGGRQFVTFSS | 8.505 ± 0.045
40 | VTWGIIYRLSDG | 3.58 ± 0.09
41 | VTYEIVLWSWIKDVVHKLLR | -0.483 ± 0.48
42 | VTYLGACVYRCCEMSLVFRF | -0.412 ± 0.63
43 | VVANINEVLINPRCSAGFHD | 0.683 ± 0.74
44 | VVCYLRIYRRILYSGIKKWP | 3.71 ± 0.073
45 | VVDGLRATAH | 0.366 ± 0.38
46 | VVIAKDIMFSGSRINMVGSV | -1.23 ± 1.1
47 | VVIHLLPSES | inactive
48 | VVIILNDTNFLMINMVQRVM | 4.327 ± 0.039
49 | VVKLMAMFGRTNVLTLERHL | 0.655 ± 0.31
50 | VVLRELRIYIMNVWDPRGTL | -0.998 ± 0.62

Row | Substance | amyloid nucleation score
51 | VVMNFMTDVNSLVWPTS | inactive
52 | VVNSQQFVGLCSRRSA | 0.576 ± 0.42
53 | VVRRYICRVLRMFWYWVVRE | -0.145 ± 0.76
54 | VVRYRLCSWMDIMCNVAACQ | 4.267 ± 0.042
55 | VVTFTDYI | 0.237 ± 1
56 | VVTHYLQIYPRFSMHFFVSV | 1.33 ± 0.22
57 | VVTIIRSSVWVSTLCFGFFV | 4.01 ± 0.068
58 | VVTLRCSIVKEDTNGLLPGV | 2.79 ± 0.09
59 | VVVLFIEVLNCYLRGKVKCM | -0.802 ± 0.39
60 | VVVNTYYSGIFMQVFLFL | 6.76 ± 0.037
61 | VVVNYVFPLSEFMLISDAKC | 0.833 ± 0.8
62 | VVWCGTYVYHDV | 8.885 ± 0.075
63 | VVWEYIRYRCCTYDAVYTRS | 0.522 ± 0.74
64 | VWDRITLFCSLLIRVHGLCT | 0.269 ± 0.29
65 | VWILSLAWLLPGYTCPFGPK | 4.801 ± 0.042
66 | VWKINISWRPSLSLLVIRLV | -0.594 ± 0.27
67 | VWLFNLKGPLTRNLLHNLFA | -0.678 ± 0.63
68 | VWNSIDTIYIYRHNYGFFYF | 0.751 ± 0.36
69 | VWPLNYYGWKTNMSSCFHST | -1.1 ± 1.1
70 | VWQFRCGERMTKCLLWGDYG | 0.072 ± 0.31
71 | VWQVERVTIFLGFVKNLGLV | 2.68 ± 0.084
72 | VWRWSKRNATYIGAGIWSGR | 1.42 ± 0.21
73 | VWVSSIDMGLFVANLCETAS | -0.074 ± 1.1
74 | VWYIALLQCQVRITYKGRVR | 5.43 ± 0.073
75 | VYCRNVELIGAYGIFAGSHI | -0.187 ± 0.79

Row | Substance | amyloid nucleation score
76 | VYEAWRTMQTGMYGVNRVWS | 0.911 ± 0.15
77 | VYHSGMTLFNFCCSMHLVEL | 9.22 ± 0.041
78 | VYKYI | -0.578 ± 1.1
79 | VYNSFSAFFYG | 7.051 ± 0.036
80 | VYQMCFMAILVIRIVR | 0.439 ± 0.25
81 | VYRNVLSRMQSLCVF | inactive
82 | VYTWNGRSWEYWTCPTLRNP | 0.371 ± 0.8
83 | VYVRFWESSSCYTRGRNGWN | 3.08 ± 0.086
84 | VYVWDELFVNKKANWTDL | 1.29 ± 0.47
85 | WARNEIYRRSTNKWPPMVRG | -0.014 ± 0.76
86 | WAVELLLA | 1.03 ± 0.53
87 | WCCMGDMISVKSLVWEPCVT | 3.17 ± 0.098
88 | WCGARLKSDLCILK | -0.494 ± 0.31
89 | WCHTGKRINFPFICFLWFWC | inactive
90 | WCLFVLRRADTFRKGESVTC | 1.79 ± 0.45
91 | WCYELIYV | -0.573 ± 0.79
92 | WDCGQTIYGFWDD | -0.58 ± 0.48
93 | WDGLASLQVSCVAMLLVQSF | -0.546 ± 0.39
94 | WDSQESITKS | -0.172 ± 0.54
95 | WERDTFAVLLVRNFNR | 0.187 ± 0.43
96 | WESRLLEYLCTDVNTME | -0.553 ± 0.48
97 | WFFRVLCLCRTLWNHYSFF | 0.054 ± 0.79
98 | WFGLDVNCLRSWFGLWKFVE | 0.089 ± 0.56
99 | WFLGMGKFHRRAWAARLFMV | 2.45 ± 0.12
100 | WFMVYYSLFTVNIGISRMDH | 3.52 ± 0.16

Row | Substance | amyloid nucleation score
101 | WFNCEWEDEFIEGQRVVMTV | 1.44 ± 0.47
102 | WFPLGQHEKAEILSLMIVDR | -0.154 ± 0.49
103 | WFSVVILLNSTMEYYQYLV | -0.128 ± 0.45
104 | WFWNGLFNIRTVLDMHALCT | 4.11 ± 0.088
105 | WFYLCMFGAYLWRVRFDIRK | -0.428 ± 0.34
106 | WGAVMACE | 0.756 ± 0.49
107 | WGFIVDFILSGRRPAGYQLL | 0.309 ± 0.8
108 | WGICSTEVSVIEWDWNGYQF | -1.14 ± 1.1
109 | WGKLRGIPAYDYSLTGCLYV | 0.647 ± 0.8
110 | WGNILW | inactive
111 | WGRWSHRWAFHYRACS | -0.879 ± 0.39
112 | WGSEAHTDRVVQYWILALQR | 1.19 ± 0.12
113 | WHDNSSNGTGEGNFVRPVPV | 1.13 ± 0.11
114 | WHGQQDLDYYHFT | inactive
115 | WHIFRNYAFIRVSM | 0.036 ± 0.46
116 | WIFFHGGRMRTCYRDAVGEV | -0.484 ± 0.36
117 | WISNAWLYLWKHR | 0.586 ± 0.81
118 | WIWEKSHWSENISMVRCDVS | 0.379 ± 0.55
119 | WKVVSEIWIMGTSSTFVTDH | 1.11 ± 0.12
120 | WLAICVARWSETYCMFVWTT | -0.441 ± 1.1
121 | WLCYRGEFRYFDPVGNDLRN | inactive
122 | WLFIVFSTLS | -0.19 ± 1
123 | WLHTTFSRSICSISIHRALE | -0.07 ± 0.48
124 | WLLWS | 0.472 ± 0.26
125 | WLRLPICDLQLLNWADLRFV | 0.236 ± 1.1
